# B1: BfOYE4 (Botrytis cinerea B05.10) (protein)
# chain: MSTPTPHPQHGVPCGTSTPRPGLLNTPAPGVPFYTPLQSPPSGTALHLSPSTPKLFTPLKIRSLTLQNRIMLSPMCQYSASNGHFTPWHMAHLGGIISRGPGLSMVEATSVLPEGRITPEDSGLWLDSQGDKLKEVVQFAHSQGQLIGIQLSHAGRKASMVAPWLDRSAVATEEAGGWPTKVKGPSAIPYDEHHYKPSAMTLEDIQEFKDAWAASLKRALKAGFDVIEIHNAHGYLLHEFVSPVSNKRTDQYGGSFENRIRLTLEIVEITRKIIPESMPLFLRISATDWLDYEGFGEESWTVADSARLAGILADRGVDLMDVSSGANHPRQKITAGLGYQAPFAKEIKRVVGERMLVGTVGMIGSGRQAEGLLSGMGGERGVDEGEEEEGKGTELDLVIVARGFQKNPGLVWEWAEELGVRIMVAHQMRWGFRGKAGGH
# notes: N-terminal His6 tag, E. coli BL21(DE3), 421 residues, dimer in crystal, several oligomeric species in solution; cloning reported elsewhere
# B2: AnOYE2 (Aspergillus niger CBS 513.88) (protein)
# chain: MCSKLFQPLQIGKTNLEHRVVMAPLTRFRADSQHVPLPMATTYYEQRASVPGTLLIAEATLISPSAGGVPHAPGVWSEEQVNGWKKITEAVHKKGSFIFCQLIAAGRAADPAQLHAEGGFMLHAPSPIPIEPGMPVPKELDEIEVQEIINDFAMAAKNAIRAGFDGVEIHGANGYLVDQFLQDVSNKRNDKWGGSIPNRARFGLEVAKAVADAIGADRLGFRLSPWNTWQSMKMVDPVPQFTYFVERLQQLGLAYLHVIESRVINNVDCEKEGSIKFLLDVWGKSAPVIVAGGYRPENVENALEEEYKDYKVAVAFGRHFIANPDLPFRIRHDIHLNPYDRESFYTPLQENGYTDYPFSAEFIKSKTKC
# Experiments:
# [1] = biological target: BfOYE1 (Botryotinia fuckeliana B05.10); assay: SEC; analytical gel filtration, Superdex 200 10/300 GL, 150 ug purified protein, Tris-HCl pH 8.0 50 mM, NaCl 150 mM, 1 mL/min; apparent molecular weight from a calibration curve
# [2] = biological target: BfOYE1 (Botryotinia fuckeliana B05.10); assay: native gel or EMSA
# [3] = biological target: AnOYE8 (Aspergillus niger CBS 513.88); assay: SEC; analytical gel filtration, Superdex 200 10/300 GL, 150 ug purified protein, Tris-HCl pH 8.0 50 mM, NaCl 150 mM, 1 mL/min; apparent molecular weight from a calibration curve
# [4] = biological target: AnOYE8 (Aspergillus niger CBS 513.88); assay: crystal structure; N-terminal His6-tagged AnOYE8, 15 mg/mL in Tris-HCl pH 8.0 50 mM; PEG 5000 MME 18% w/v, MES pH 6.5 0.1 M, ammonium sulphate 0.2 M, 293 K; space group C121, four molecules per asymmetric unit
# [5] = biological target: AnOYE8 (Aspergillus niger CBS 513.88); assay: native gel or EMSA; BN-PAGE, NativePAGE 3 to 12% Bis-Tris gel, 12.5 ug of sample from each gel filtration peak, 150 V for 2 h; BSA and HSA for comparison of the MWs
# AnOYE8 = biological target: T1, AnOYE8 (Aspergillus niger, UniProt A2QBV3); assay: X-ray crystal structure, […] Å; type: binding; settings: active site, non-covalently bound; pH 6.5 crystals
# T1 construct: gene An02g01330
# T1 sequence (A2QBV3 1-421): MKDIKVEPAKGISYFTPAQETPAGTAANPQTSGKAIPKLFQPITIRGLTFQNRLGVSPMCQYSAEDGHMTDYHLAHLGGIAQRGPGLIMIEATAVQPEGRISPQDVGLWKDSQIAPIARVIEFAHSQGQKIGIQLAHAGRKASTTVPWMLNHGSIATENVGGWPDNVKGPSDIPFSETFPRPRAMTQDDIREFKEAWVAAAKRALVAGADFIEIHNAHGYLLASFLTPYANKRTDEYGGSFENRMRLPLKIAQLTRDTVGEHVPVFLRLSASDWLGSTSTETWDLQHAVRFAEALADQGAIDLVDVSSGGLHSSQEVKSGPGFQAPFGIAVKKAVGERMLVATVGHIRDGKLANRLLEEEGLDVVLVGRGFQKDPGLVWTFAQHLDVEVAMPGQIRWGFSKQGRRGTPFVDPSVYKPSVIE
# purified protein [6] = substrate: O=C1C=CC(=O)N1; assay: purified protein; type: biochemical, Botrytis cinerea; settings: NADPH 100 µM, Tris-HCl 50 mM pH 8.0, 25 °C, enzyme 20 nM
# purified protein [7] = substrate: C=CC(=O)CCCCC; assay: purified protein; type: biochemical, Botrytis cinerea; settings: NADPH 100 µM, Tris-HCl 50 mM pH 8.0, 25 °C, enzyme 200 nM
# purified protein [8] = substrate: O=C1C=CCCC1; assay: purified protein; type: biochemical, Botrytis cinerea; settings: NADPH 100 µM, Tris-HCl 50 mM pH 8.0, 25 °C, enzyme 200 nM
# purified protein [9] = substrate: O=C1C=CCC1; assay: purified protein; type: biochemical, Botrytis cinerea; settings: NADPH 100 µM, Tris-HCl 50 mM pH 8.0, 25 °C, enzyme 200 nM
# purified protein [10] = substrate: CC1=CCCCC1=O; assay: purified protein; type: biochemical, Botrytis cinerea; settings: NADPH 100 µM, Tris-HCl 50 mM pH 8.0, 25 °C, enzyme 200 nM
# purified protein [11] = substrate: NC(=O)C1=CN([C@@H]2O[C@H](COP(=O)(O)OP(=O)(O)OC[C@H]3O[C@@H](n4cnc5c(N)ncnc54)[C@H](OP(=O)(O)O)[C@@H]3O)[C@@H](O)[C@H]2O)C=CC1; assay: purified protein; type: biochemical, Botrytis cinerea; settings: maleimide 1 mM, Tris-HCl 50 mM pH 8.0, 25 °C, enzyme 20 nM
# purified protein [12] = substrate: O=C1C=CC(=O)N1; assay: purified protein; type: biochemical, Aspergillus niger; settings: NADPH 100 µM, Tris-HCl 50 mM pH 8.0, 25 °C, enzyme 20 nM
# purified protein [13] = substrate: NC(=O)C1=CN([C@@H]2O[C@H](COP(=O)(O)OP(=O)(O)OC[C@H]3O[C@@H](n4cnc5c(N)ncnc54)[C@H](OP(=O)(O)O)[C@@H]3O)[C@@H](O)[C@H]2O)C=CC1; assay: purified protein; type: biochemical, Aspergillus niger; settings: maleimide 1 mM, Tris-HCl 50 mM pH 8.0, 25 °C, enzyme 20 nM
molecule,measurement,setting,value
BfOYE1 (enzyme),stoichiometry N,[1],2
same,stoichiometry N,[2],2
AnOYE8 (enzyme),stoichiometry N,[3],2
same,stoichiometry N,[4],2
same,stoichiometry N,[5],2
Cc1cc2nc3c(=O)[nH]c(=O)nc-3n(C[C@H](O)[C@H](O)[C@H](O)COP(=O)(O)O)c2cc1C [FMN],"X-ray crystal structure, 2.8 Å",AnOYE8,AnOYE8 accommodated a non-covalently bound FMN cofactor molecule
B1,Km,purified protein [6],70 ± 10 µM
same,kcat,purified protein [6],36.3 ± 1.12 s⁻¹
same,kcat/Km,purified protein [6],519000 M⁻¹ s⁻¹
same,Km,purified protein [7],2720 ± 500 µM
same,kcat,purified protein [7],22.6 ± 1.14 s⁻¹
same,kcat/Km,purified protein [7],8300 M⁻¹ s⁻¹
same,Km,purified protein [8],650 ± 90 µM
same,kcat,purified protein [8],2.57 ± 0.07 s⁻¹
same,kcat/Km,purified protein [8],3900 M⁻¹ s⁻¹
same,Km,purified protein [9],1070 ± 120 µM
same,kcat,purified protein [9],1.06 ± 0.03 s⁻¹
same,kcat/Km,purified protein [9],1000 M⁻¹ s⁻¹
same,Km,purified protein [10],1830 ± 180 µM
same,kcat,purified protein [10],0.56 ± 0.013 s⁻¹
same,kcat/Km,purified protein [10],300 M⁻¹ s⁻¹
same,Km,purified protein [11],130 ± 20 µM
same,kcat,purified protein [11],89.2 ± 3.37 s⁻¹
same,kcat/Km,purified protein [11],686000 M⁻¹ s⁻¹
B2,Km,purified protein [12],10 ± 0 µM
same,kcat,purified protein [12],7.38 ± 0.66 s⁻¹
same,kcat/Km,purified protein [12],738000 M⁻¹ s⁻¹
same,Km,purified protein [13],37 ± 10 µM
same,kcat,purified protein [13],8 ± 0.4 s⁻¹
same,kcat/Km,purified protein [13],216000 M⁻¹ s⁻¹
